# Assay results taken from patent US20200016512A1, “AFFINITY […] FOR PURIFYING IMMUNOGLOBULIN” (KANEKA CORPORATION, priority 2017, published 2020).
# Test system: Fab
# Assay: Residual binding activity to Fab after alkali treatment (alkali resistance)
# Format: physicochemical, human
# Conditions: 0.2 mL peptide solution + 0.1 mL 45 mM sodium hydroxide, 25° C., 2 hours; compared with SpG mutant SEQ ID NO: 20
# Method: Each peptide was subjected to dialysis using ultrapure water and the concentration thereof was adjusted to obtain 4 μM aqueous solution. To 0.2 mL of the aqueous solution, 0.1 mL corresponding to a half amount of the aqueous solution of 45 mM sodium hydroxide aqueous was added. The mixture was incubated at 25° C. for 2 hours and then neutralized by 0.1 mL of 50 mM acetic acid (pH 3.0). After it was confirmed that the mixture was neutralized by using a pH test paper, the mixture was diluted to 20 times by the standard buffer so that the concentration was adjusted to 100 nM.
# The peptide solution prepared as the above was defined as a sample before alkali treatment at 0 hr, and 0.1 mL of the above sodium hydroxide aqueous solution and 0.1 mL of 50 mM acetic acid (pH 3.0) were preliminarily mixed and the mixture was added to the sample. The final concentration of the peptide in the solution was 100 nM.
# A binding to an immunoglobulin by a similar method to Example 2(2) using Octet and the peptide solutions before and after the alkali treatment prepared in the above (1) was measured. An Fc was used instead of IgG in this experiment in order to simplify a binding pattern. […]
# A residual binding activity to a Fab of the Fab-binding activity-enhanced peptides of SEQ ID NOs: 11 and 13 after the alkali resistance was also evaluated. […]
substance,measurement,value
"SEQ ID NO: 13: Fab-binding activity-enhanced immunoglobulin-binding peptide, partly mutated sequence of SEQ ID NOs: 2 to 7 (TTYRLVIKGVTLTGYTATIAVDAATAEQTLRQFANDNGITGEWAYDTATKTFTVTE; novel peptide)",Alkali resistance: residual binding activity to a Fab after the alkali treatment (FIG. 3B),similarly improved
"SEQ ID NO: 11: Fab-binding activity-enhanced immunoglobulin-binding peptide, partly mutated sequence of SEQ ID NOs: 2 to 7 (TTYKLIVKGNTLTGYTTTIAVDAETAEKALKQFANENGVYGEWSYDDATKTFTVTE; novel peptide)",Alkali resistance: residual binding activity to a Fab after the alkali treatment (FIG. 3B),similarly improved
